The values below come from patent publication US20250108100A1, “C-TERMINAL FRAGMENT OF APOLIPOPROTEIN E AND APPLICATION THEREOF IN INHIBITING y-SECRETASE ACTIVITY” (SYNPHATEC (SHANGHAI) BIOPHARMACEUTICAL TECHNOLOGY CO., LTD., priority 2022, published 2025).

The assay deals with γ-secretase (PS1, PS2) knockout HEK 293T cells. The experiment in a line: PS1 KO, PS2 KO and PS1/2 dKO HEK 293T cell lines: α-CTF and Aβ40. The format is cell-based, human. As for the experimental part: • a) A plasmid expressing the target protein in mammalian cells was constructed, and the protein expression promoter is CAG. • b) The target protein was expressed in HEK 293T cell line. Cells were subcultured one day before transfection, and transfection was performed when the degree of cell adhesion reached 70%-80%. The transfection reagent was lipofectamine2000 (ThermoFisher). • c) 4-6 hours post transfection, the medium were replaced with fresh cell culture medium. • d) 36-48 hours post transfection, the cells were lysed (10% 1M tris-HCl (pH=6.8), 4% SDS, 20% glycerol, 0.01% bromophenol blue), and the protein samples were collected and used for Western blot or stored in a −80° C. freezer. • e) Polyacrylamide gel electrophoresis. Before protein loading, the protein was boiled at 98° C. for 10 min, and then centrifuged at 12000 rpm for 10 min. Electrophoresis: 80V for the upper stacking gel; 120V for the lower separating gel. • f) Protein transfer. The filter paper was soaked in the electrophoresis solution before use, and the PVDF membrane was put in methanol for 10s to activate, and the gel after electrophoresis was taken out from the electrophoresis tank, put in the order of filter paper—PVD membrane—gel-filter paper from bottom to top, and they were put into the transfer instrument, with transferring in constant current at 0.1 A for 70 min. • g) Blocking and antibody incubation: the transferred PVDF membrane was placed in 5% BSA/TBST blocking solution, and blocked on a shaker at room temperature for 1 hour. The primary antibody was used to incubate at 4° C. overnight on a shaker (12-16 h); 1×TBST was used to wash three times, once every 10 minutes; the secondary antibody was used to incubate, shaked at room temperature for 1-2 h; 1×TBST was used to wash three times, once every 10 minutes. • h) Imaging by development: development was performed with ECL chemiluminescence hypersensitive chromogenic reagent.
The experiment was performed according to the standard procedure in the ELISA analysis kit of Invitrogen Company. • a) The target protein was expressed in HEK 293T cell line. Cells were subcultured one day before transfection, and transfection was performed when the degree of cell adhesion reached 70%-80%. The transfection reagent was lipofectamine2000 (ThermoFisher). • b) 4-6 hours post transfection, medium were replaced with fresh cell culture medium. • c) 36-48 hours post transfection, the cell culture medium was collected, and then the ELISA process was performed or the cell culture medium was frozen in a −80° C. refrigerator. • d) 50 μl of standard samples and experimental samples were added to each well of the 96-well plate. • e) 50 μl of human-derived Aβ40 or Aβ42 or mouse-derived Aβ40 detection antibody was added to each well of the 96-well plate. • f) The above samples were shaken gently and placed at room temperature for 3 hours. • g) The liquid in the well were removed, and the plate was washed 4 times with 1× wash buffer. • h) 100 μl of the buffer containing 1× anti-Rabbit IgG HRP was added. • i) The plate was shaken gently and placed at room temperature for […]. • j) The liquid in the well were removed, and the well was washed 4 times with 1× wash buffer. • k) 100 μl of Stabilized Chromogen was added to each well, and the plate was placed in the dark for 30 minutes at room temperature. • l) 100 μl of Stop Solution was added to each well. • m) The absorbance at 450 nm was measured with a microplate reader. 2.4 qRT-PCR […]

Entries after “also recorded” stand apart in the source; their conditions may differ.

B1: ApoE CT: C-terminal fragment of ApoE, positions 216-299 of SEQ ID NO: 12; SEQ ID NO: 33 (protein)
chain: ARMEEMGSRTRDRLDEVKEQVAEVRAKLEEQAQQIRLQAEAFQARLKSWFEPLVEDMQRQWAGLVEKVQAAVGTSAAPVPSDNH
Consider B1, for which the “Aβ40 in PS1/2 dKO cells supplemented with PS2” value (ELISA) was “can reduce Aβ40; also recorded: significantly reduced Aβ40”. For the same molecule, where the note is “PS1 and PS2 double knockout HEK 293T cells”, the “α-CTF in PS1/2 dKO cells” value is “does not further increase α-CTF; also recorded: did not further increase α-CTF levels”. Also, for the setting “PS1 single knockout HEK 293T cells”, the “α-CTF in PS1 KO cells” value was “still able to increase α-CTF”. The “α-CTF in PS2 KO cells” value (PS2 single knockout HEK 293T cells) is reported as “still able to increase α-CTF”. Moreover, the “α-CTF in PS1/2 dKO cells supplemented with PS1 or PS2” value (rescued expression of PS1 or PS2) is on record as “can significantly increase α-CTF; also recorded: again significantly increased α-CTF”.
